Biological target: SARS-CoV-2 RBD fused to mouse Fc (RBD-mFc) (SARS-CoV-2, UniProt P0DTC2)
Experiment: BLI

B1: COV2-2196 (human mAb) (antibody, V domains shown)
VH: QMQLVQSGPEVKKPGTSVKVSCKASGFTFMSSAVQWVRQARGQRLEWIGWIVIGSGNTNYAQKFQERVTITRDMSTSTAYMELSSLRSEDTAVYYCAAPYCSSISCNDGFDIWGQGTMVTVSS
VL: not shown
- binding result: binds

B2: COV2-2165 (human mAb) (antibody, V domains shown)
VH: EVQLVESGGGLVQPGGSLRLSCAASGLTVRSNYMTWVRQTPGKGLEWVSVIYSGGSTFYADSVKGRFTISRDNSKNTVYLQMNSLRAEDTAVYYCARDLVTYGLDVWGQGTTVTVSS
VL: DIQLTQSPSFLSASVGDRVTITCRASQGISNYLAWYQQKPGTAPNLLIYAASTLQSGVPSRFSGSGSGTEFTLTISSLQPEDFATYYCQLLNSHPLTFGQGTRLEIK
- binding result: binds
